Residue numbers refer to the chain shown, from its start. In names and notes the source's numbering stands.
B1: Yen1 SIM1-2ΔΔ (D635A D636A D637A V675A E677A), HA-tagged, purified (natural protein, S. cerevisiae, UniProt P40028 1-759, looked up)
chain: MGVSQIWEFLKPYLQDSRIPLRKFVIDFNKSQKRAPRIAIDAYGWLFECGFIQNIDISARSRSRSRSPTRSPRDSDIDSSQEYYGSRSYTTTGKAVINFISRLKELLSLNVEFLLVFDGVMKPSFKRKFNHEQNATTCDDEKEYYSSWEQHVKNHEVYGNCKGLLAPSDPEFISLVRKLLDLMNISYVIACGEGEAQCVWLQVSGAVDFILSNDSDTLVFGGEKILKNYSKFYDDFGPSSITSHSPSRHHDSKESFVTVIDLPKINKVAGKKFDRLSLLFFSVLLGADYNRGVKGLGKNKSLQLAQCEDPNFSMEFYDIFKDFNLEDLTSESLRKSRYRLFQKRLYLYCKDHSVELFGRNYPVLLNQGSFEGWPSTVAIMHYFHPIVQPYFDEEVLSDKYINMAGNGHYRNLNFNELKYFLQSLNLPQISSFDKWFHDSMHEMFLLREFLSIDESDNIGKGNMRITEEKIMNIDGGKFQIPCFKIRYTTFLPNIPISSQSPLKRSNSPSRSKSPTRRQMDIMEHPNSLWLPKYLIPQSHPLVIQYYETQQLIQKEKEKKGKKSNKSRLPQKNNLDEFLRKHTSPIKSIGKVGESRKEILEPVRKRLFVDTDEDTSLEEIPAPTRLTTVDEHSDNAAASLIFVDEITNSQSVLDSSPGKRIRDLTQDEQVDVWKDAIAISPIKKSRTTNAEKNPPESGLKSRSSITINARLQGTKMLPPNLTAPRLEREHSSVLDQLVTDAQDTVDRFVACDSDSSSTIE
B2: Yen1 SIM2Δ (V675A E677A), HA-tagged, purified (natural protein, S. cerevisiae, UniProt P40028 1-759, looked up)
chain: B1 chain with A635D, A636D, A637D
B3: Yen1 SIM1Δ (D635A D636A D637A), HA-tagged, purified (natural protein, S. cerevisiae, UniProt P40028 1-759, looked up)
chain: B1 chain with A675V, A677E

Molecular target: GST-Smt3 (S. cerevisiae, UniProt Q12306 1-101 = SUMO)
Sequence (Q12306 whole entry): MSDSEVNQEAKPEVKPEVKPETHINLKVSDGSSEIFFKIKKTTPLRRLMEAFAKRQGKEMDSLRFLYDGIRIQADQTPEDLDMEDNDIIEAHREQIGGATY
Assay: cell-based or functional assay

Binder	fraction of SUMOylated Yen1 recovered by denaturing Ni-NTA pull-down of 6xHis-Smt3 from cells grown in 0.3% MMS, relative to wild-type Yen1
B1	1%
B2	~20%
B3	5%
